{
  "source": "paper PMC1448213",
  "origin": "cited, not measured here",
  "biological_target": "high affinity NGF receptor (UniProt P35739)",
  "sequence (P35739 33-418)": "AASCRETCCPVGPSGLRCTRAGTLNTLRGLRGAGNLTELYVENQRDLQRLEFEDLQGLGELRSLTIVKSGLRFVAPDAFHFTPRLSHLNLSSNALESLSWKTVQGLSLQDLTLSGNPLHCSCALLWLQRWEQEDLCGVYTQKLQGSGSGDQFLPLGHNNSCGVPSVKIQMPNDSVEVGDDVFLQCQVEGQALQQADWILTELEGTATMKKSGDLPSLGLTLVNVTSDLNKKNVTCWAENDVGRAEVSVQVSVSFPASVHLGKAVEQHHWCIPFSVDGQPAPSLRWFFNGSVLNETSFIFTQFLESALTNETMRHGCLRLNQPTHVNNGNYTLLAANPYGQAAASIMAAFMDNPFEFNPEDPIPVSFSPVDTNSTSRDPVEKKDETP",
  "data": [
    {"substance": "NGF (from UniProt P01139)", "values": [
      {"measurement": "Kd", "result": 0.6, "unit": "nM"}
    ]}
  ]
}
